The values below come from PMC7494017.

As a reminder, the Kd is the free concentration of one partner at which half of the binding sites on the other are occupied at equilibrium, for simple one-to-one binding. A higher Kd goes with lower affinity. The term stoichiometry N denotes a count of units in the complex or per binding partner.

Experiment [1] addresses SAV1 Y273E-WW12ex (mouse). The experiment can be described thus: ITC. (In general: In ITC the heat of successive injections is recorded.)
Experiment [2] has as its target SAV1 WW12 (aa E198-A268) (mouse) (UniProt Q8VEB2). Nature of the experiment: ITC.
Experiment [3] concerns the target SAV1 S245D-WW12ex (mouse). Nature of the experiment: SEC-MALS.

For “Dendrin PY23 (aa D222-G241) (from UniProt Q80TS7 222-241) (domain or fragment)”, the Kd in experiment [1] stood at 3.8 µM.
In turn, “Dendrin PY23 with the PPPY motif changed into PPDY (from UniProt Q80TS7 222-241) (domain or fragment)” gave a fold weakening of binding against WT dendrin PY23 in experiment [2] of 18 fold.
On to SAV1 S245D-WW12ex (domain or fragment), for which the stoichiometry N in experiment [3] was 2.
